Experimental data published in US20180155451A1 (published 2018).

T1: FcγRIIa R (FcγRIIa, allotype R, Arg at position 131), extracellular domain with C-terminal His tag (human, UniProt P12318 34-217)
T1 construct: extracellular domain; soluble receptor used as Biacore analyte; also called 2aR; FcgRIIa R
T1 sequence (looked up): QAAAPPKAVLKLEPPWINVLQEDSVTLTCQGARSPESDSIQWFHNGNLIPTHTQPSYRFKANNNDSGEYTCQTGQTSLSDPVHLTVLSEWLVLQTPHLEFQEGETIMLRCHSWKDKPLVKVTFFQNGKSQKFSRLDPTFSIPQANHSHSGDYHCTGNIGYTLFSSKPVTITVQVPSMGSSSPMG

T2: FcγRIIb, extracellular domain with C-terminal His tag (human, UniProt P31994 43-217)
T2 construct: extracellular domain; soluble receptor used as Biacore analyte; also called 2b; FcgRIIb
T2 sequence (looked up): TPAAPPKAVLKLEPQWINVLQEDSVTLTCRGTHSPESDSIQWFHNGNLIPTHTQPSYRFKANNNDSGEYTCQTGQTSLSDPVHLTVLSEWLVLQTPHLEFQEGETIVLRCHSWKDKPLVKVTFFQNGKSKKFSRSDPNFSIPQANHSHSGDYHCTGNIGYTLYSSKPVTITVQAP

B1: heterodimerized antibody GpH7-A5/GpH7-B3 variant G237_09D/GpL16-k0 (antibody, human IgG1, kappa)
heavy 1: not shown
heavy 2: not shown
light: DIVMTQSPLSLPVTPGEPASISCQASESLVHSNRNTYLHWYLQKPGQSPQLLIYKVSNRFSGVPDRFSGSGSGTDFTLKISRVEAEDVGVYYCSQNTHVPPTFGQGTKVEIERTVAAPSVFIFPPSDEQLKSGTASVVCLLNNFYPREAKVQWKVDNALQSGNSQESVTEQDSKDSTYSLSSTLTLSKADYEKHKVYACEVTHQGLSSPVTKSFNRGEC
notes: He Ab: anti-glypican-3 IgG1, alteration in one H chain only; also called He Ab
B2: heterodimerized antibody GpH7-A5/GpH7-B3 variant G237_20W/GpL16-k0 (antibody, human IgG1, kappa)
heavy 1: not shown
heavy 2: not shown
light: DIVMTQSPLSLPVTPGEPASISCQASESLVHSNRNTYLHWYLQKPGQSPQLLIYKVSNRFSGVPDRFSGSGSGTDFTLKISRVEAEDVGVYYCSQNTHVPPTFGQGTKVEIERTVAAPSVFIFPPSDEQLKSGTASVVCLLNNFYPREAKVQWKVDNALQSGNSQESVTEQDSKDSTYSLSSTLTLSKADYEKHKVYACEVTHQGLSSPVTKSFNRGEC
notes: as for B1
B3: heterodimerized antibody GpH7-A5/GpH7-B3 variant H268_02A/GpL16-k0 (antibody, human IgG1, kappa)
heavy 1: not shown
heavy 2: not shown
light: DIVMTQSPLSLPVTPGEPASISCQASESLVHSNRNTYLHWYLQKPGQSPQLLIYKVSNRFSGVPDRFSGSGSGTDFTLKISRVEAEDVGVYYCSQNTHVPPTFGQGTKVEIERTVAAPSVFIFPPSDEQLKSGTASVVCLLNNFYPREAKVQWKVDNALQSGNSQESVTEQDSKDSTYSLSSTLTLSKADYEKHKVYACEVTHQGLSSPVTKSFNRGEC
notes: as for B1
B4: heterodimerized antibody GpH7-A5/GpH7-B3 variant H268_09D/GpL16-k0 (antibody, human IgG1, kappa)
heavy 1: not shown
heavy 2: not shown
light: DIVMTQSPLSLPVTPGEPASISCQASESLVHSNRNTYLHWYLQKPGQSPQLLIYKVSNRFSGVPDRFSGSGSGTDFTLKISRVEAEDVGVYYCSQNTHVPPTFGQGTKVEIERTVAAPSVFIFPPSDEQLKSGTASVVCLLNNFYPREAKVQWKVDNALQSGNSQESVTEQDSKDSTYSLSSTLTLSKADYEKHKVYACEVTHQGLSSPVTKSFNRGEC
notes: as for B1
B5: heterodimerized antibody GpH7-A5/GpH7-B3 variant H268_10E/GpL16-k0 (antibody, human IgG1, kappa)
heavy 1: not shown
heavy 2: not shown
light: DIVMTQSPLSLPVTPGEPASISCQASESLVHSNRNTYLHWYLQKPGQSPQLLIYKVSNRFSGVPDRFSGSGSGTDFTLKISRVEAEDVGVYYCSQNTHVPPTFGQGTKVEIERTVAAPSVFIFPPSDEQLKSGTASVVCLLNNFYPREAKVQWKVDNALQSGNSQESVTEQDSKDSTYSLSSTLTLSKADYEKHKVYACEVTHQGLSSPVTKSFNRGEC
notes: as for B1
B6: heterodimerized antibody GpH7-A5/GpH7-B3 variant H268_13S/GpL16-k0 (antibody, human IgG1, kappa)
heavy 1: not shown
heavy 2: not shown
light: DIVMTQSPLSLPVTPGEPASISCQASESLVHSNRNTYLHWYLQKPGQSPQLLIYKVSNRFSGVPDRFSGSGSGTDFTLKISRVEAEDVGVYYCSQNTHVPPTFGQGTKVEIERTVAAPSVFIFPPSDEQLKSGTASVVCLLNNFYPREAKVQWKVDNALQSGNSQESVTEQDSKDSTYSLSSTLTLSKADYEKHKVYACEVTHQGLSSPVTKSFNRGEC
notes: as for B1
B7: heterodimerized antibody GpH7-A5/GpH7-B3 variant K326_07I/GpL16-k0 (antibody, human IgG1, kappa)
heavy 1: not shown
heavy 2: not shown
light: DIVMTQSPLSLPVTPGEPASISCQASESLVHSNRNTYLHWYLQKPGQSPQLLIYKVSNRFSGVPDRFSGSGSGTDFTLKISRVEAEDVGVYYCSQNTHVPPTFGQGTKVEIERTVAAPSVFIFPPSDEQLKSGTASVVCLLNNFYPREAKVQWKVDNALQSGNSQESVTEQDSKDSTYSLSSTLTLSKADYEKHKVYACEVTHQGLSSPVTKSFNRGEC
notes: as for B1
B8: heterodimerized antibody GpH7-A5/GpH7-B3 variant K326_08L/GpL16-k0 (antibody, human IgG1, kappa)
heavy 1: not shown
heavy 2: not shown
light: DIVMTQSPLSLPVTPGEPASISCQASESLVHSNRNTYLHWYLQKPGQSPQLLIYKVSNRFSGVPDRFSGSGSGTDFTLKISRVEAEDVGVYYCSQNTHVPPTFGQGTKVEIERTVAAPSVFIFPPSDEQLKSGTASVVCLLNNFYPREAKVQWKVDNALQSGNSQESVTEQDSKDSTYSLSSTLTLSKADYEKHKVYACEVTHQGLSSPVTKSFNRGEC
notes: as for B1
B9: heterodimerized antibody GpH7-A5/GpH7-B3 variant K326_09D/GpL16-k0 (antibody, human IgG1, kappa)
heavy 1: not shown
heavy 2: not shown
light: DIVMTQSPLSLPVTPGEPASISCQASESLVHSNRNTYLHWYLQKPGQSPQLLIYKVSNRFSGVPDRFSGSGSGTDFTLKISRVEAEDVGVYYCSQNTHVPPTFGQGTKVEIERTVAAPSVFIFPPSDEQLKSGTASVVCLLNNFYPREAKVQWKVDNALQSGNSQESVTEQDSKDSTYSLSSTLTLSKADYEKHKVYACEVTHQGLSSPVTKSFNRGEC
notes: as for B1
B10: heterodimerized antibody GpH7-A5/GpH7-B3 variant K326_10E/GpL16-k0 (antibody, human IgG1, kappa)
heavy 1: not shown
heavy 2: not shown
light: DIVMTQSPLSLPVTPGEPASISCQASESLVHSNRNTYLHWYLQKPGQSPQLLIYKVSNRFSGVPDRFSGSGSGTDFTLKISRVEAEDVGVYYCSQNTHVPPTFGQGTKVEIERTVAAPSVFIFPPSDEQLKSGTASVVCLLNNFYPREAKVQWKVDNALQSGNSQESVTEQDSKDSTYSLSSTLTLSKADYEKHKVYACEVTHQGLSSPVTKSFNRGEC
notes: as for B1
B11: heterodimerized antibody GpH7-A5/GpH7-B3 variant L328_04F/GpL16-k0 (antibody, human IgG1, kappa)
heavy 1: not shown
heavy 2: not shown
light: DIVMTQSPLSLPVTPGEPASISCQASESLVHSNRNTYLHWYLQKPGQSPQLLIYKVSNRFSGVPDRFSGSGSGTDFTLKISRVEAEDVGVYYCSQNTHVPPTFGQGTKVEIERTVAAPSVFIFPPSDEQLKSGTASVVCLLNNFYPREAKVQWKVDNALQSGNSQESVTEQDSKDSTYSLSSTLTLSKADYEKHKVYACEVTHQGLSSPVTKSFNRGEC
notes: as for B1
B12: heterodimerized antibody GpH7-A5/GpH7-B3 variant L328_07I/GpL16-k0 (antibody, human IgG1, kappa)
heavy 1: not shown
heavy 2: not shown
light: DIVMTQSPLSLPVTPGEPASISCQASESLVHSNRNTYLHWYLQKPGQSPQLLIYKVSNRFSGVPDRFSGSGSGTDFTLKISRVEAEDVGVYYCSQNTHVPPTFGQGTKVEIERTVAAPSVFIFPPSDEQLKSGTASVVCLLNNFYPREAKVQWKVDNALQSGNSQESVTEQDSKDSTYSLSSTLTLSKADYEKHKVYACEVTHQGLSSPVTKSFNRGEC
notes: as for B1
B13: heterodimerized antibody GpH7-A5/GpH7-B3 variant L328_09D/GpL16-k0 (antibody, human IgG1, kappa)
heavy 1: not shown
heavy 2: not shown
light: DIVMTQSPLSLPVTPGEPASISCQASESLVHSNRNTYLHWYLQKPGQSPQLLIYKVSNRFSGVPDRFSGSGSGTDFTLKISRVEAEDVGVYYCSQNTHVPPTFGQGTKVEIERTVAAPSVFIFPPSDEQLKSGTASVVCLLNNFYPREAKVQWKVDNALQSGNSQESVTEQDSKDSTYSLSSTLTLSKADYEKHKVYACEVTHQGLSSPVTKSFNRGEC
notes: as for B1
B14: heterodimerized antibody GpH7-A5/GpH7-B3 variant L328_10E/GpL16-k0 (antibody, human IgG1, kappa)
heavy 1: not shown
heavy 2: not shown
light: DIVMTQSPLSLPVTPGEPASISCQASESLVHSNRNTYLHWYLQKPGQSPQLLIYKVSNRFSGVPDRFSGSGSGTDFTLKISRVEAEDVGVYYCSQNTHVPPTFGQGTKVEIERTVAAPSVFIFPPSDEQLKSGTASVVCLLNNFYPREAKVQWKVDNALQSGNSQESVTEQDSKDSTYSLSSTLTLSKADYEKHKVYACEVTHQGLSSPVTKSFNRGEC
notes: as for B1

Key:
[1] = target: T1, FcγRIIa R (FcγRIIa, allotype R, Arg at …); experiment: Biacore SPR; He/Con_2aR divided by He/Con_2b (FcγRIIb)
Protocol: The heterodimerized antibodies He Abs in which one of the H chains was introduced with an alteration were assayed for their binding activities to each activating FcγR and inhibitory FcγR according to the method described in Example 4. […] The activating FcγRs in FIGS. 26, 27, 28, and 29 are FcγRIa, FcγRIIa (R), FcγRIIa (H), and FcγRIIIa, respectively.
Analysis of interaction between objective antibody and the FcγR was carried out using Biacore T100 (GE Healthcare). HBS-EP+ (GE Healthcare) was used as the running buffer, and the measurement temperature was set to 25° C. Chips produced by immobilizing the antigen peptide by the amine coupling method to a Series S Sencor Chip CM5 (GE Healthcare), or alternatively, chips produced by allowing preliminarily biotinylated antigen peptides to interact with and immobilize onto a Series S Sensor Chip SA (certified) (GE Healthcare) were used. Antibodies of interest were captured onto an antigen peptide-immobilized chip, and allowed to interact to each FcγR diluted with running buffer. To regenerate and repeatedly use the chip, the antibodies captured on the chip were washed off by reacting 10 mM glycine-HCl, pH 1.5.

[2] = target: T1, FcγRIIa R (FcγRIIa, allotype R, Arg at …); experiment: Biacore SPR; binding relative to GpH7-A5/GpH7-B3/GpL16-k0 (=100)
[3] = target: T2, FcγRIIb, extracellular domain with …; experiment: as above

Binder	IIaR/IIb (He_2aR/2b) [1]	He/Con_2aR (IIaR binding) [2]	He/Con_2b (IIb binding) [3]
B1	0.7	156 % of control	223 % of control
B2	0.71	138 % of control	193 % of control
B3	0.8	133 % of control	167 % of control
B4	0.62	149 % of control	239 % of control
B5	0.64	148 % of control	230 % of control
B6	0.8	127 % of control	160 % of control
B7	0.74	147 % of control	199 % of control
B8	0.77	137 % of control	177 % of control
B9	0.77	148 % of control	193 % of control
B10	0.74	148 % of control	200 % of control
B11	0.63	138 % of control	219 % of control
B12	0.78	124 % of control	160 % of control
B13	0.6	119 % of control	199 % of control
B14	0.61	105 % of control	172 % of control
